# Results from patent US20230039487A1.
# Assays:
# hBCMA-His (human) = hBCMA-His (human) (UniProt Q02223); assay: ELISA; isotype control
# hBCMA-mFc = hBCMA-mFc (UniProt Q02223); assay: competition ELISA; isotype control; blocking of APRIL binding
# Sequence of hBCMA-mFc (Q02223 1-54): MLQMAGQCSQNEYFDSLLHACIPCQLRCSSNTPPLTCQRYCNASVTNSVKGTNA
# Sequence of hBCMA-His (human) (Q02223 1-54): as above
substance,measurement,setting,value
h IgG1 ISO,EC50,hBCMA-His (human),61.4 nM
same,IC50,hBCMA-mFc,202 nM
